Ends that are not written are not given here. * marks the point of attachment. FITC = O=C1OC2(c3ccc(O)cc3Oc3cc(O)ccc32)c2ccc(NC(=S)*)cc21
Molecular target: T1, eVP30 110-272 (Ebola virus (Zaire), UniProt Q05323 110-272)
T1 sequence: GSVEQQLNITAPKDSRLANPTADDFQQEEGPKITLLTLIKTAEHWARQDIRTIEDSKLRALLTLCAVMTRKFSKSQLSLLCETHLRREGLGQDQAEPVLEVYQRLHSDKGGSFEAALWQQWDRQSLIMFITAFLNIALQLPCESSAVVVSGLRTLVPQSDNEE
Experiment: fluorescence polarisation
Conditions: both partners purified

B1: unlabeled eNP600-615 peptide (peptide)
peptide: RTPTVAPPAPVYRDHS
B1: binds.

B2: FITC-labeled eNP600-615 peptide (peptide)
peptide: {FITC}-RTPTVAPPAPVYRDHS
B2: binds.

Reference: paper PMC5472179 (Nature Communications, 2017)
